Molecular target: the molecule itself
Assay: native gel or EMSA; 12% native PAGE in nonreducing condition (without SDS and β-mercaptoethanol), samples not boiled; monomer chain to dimer (the paper calls it disulfide linked)

B1: recombinant human Bone Morphogenetic Protein 2 (rhBMP2) monomer, from pHT43-BMP2-M (ligand, UniProt P12643 283-396, looked up)
chain: QAKHKQRKRLKSSCKRHPLYVDFSDVGWNDWIVAPPGYHAFYCHGECPFPLADHLNSTNHAIVQTLVNSVNSKIPKACCVPTELSAISMLYLDENEKVVLKNYQDMVVEGCGCR
notes: Bone Morphogenetic Protein 2, human, mature domain / mature peptide (~399 bp amplicon with sites and His-tag); RBMP2-M, translated, gives ...EGCGCR then GRG then HHHHHH and stop, so three residues (GRG) may lie between BMP2 and the His-tag; also called rhBMP (monomer); source: B. subtilis SCK6, secreted into the culture supernatant (pHT43, amyQ signal peptide); purified by FPLC (Resource Q)
- stoichiometry N: 2
